{"source": "paper PMC12570964", "about": "(Nature Microbiology, 2025)", "binders": {"B1": {"name": "mouse IFIT2 (M. musculus Ifit2, co-expressed with Ifit3 in E. coli) (natural protein, UniProt Q64112 1-472, looked up)", "chain": "MSTTSKESLVCNLRQLKCHFTWNLIAEDESLDEFEDRVFNKDEFQNSEFKATMCNILAYVKHCRGLNEAALQCLGEAEGFIQQQHPDQVEIRSLVTWGNYAWVYYHMGQFSKAQAYLDKVKQVCKKFSSPYRIENPALDCEEGWARLKCTKNQNERVKVCFQKALEKDPKNPEFTSGWAIAFYRLDDWPARNYCIDSLEQAIQLSPDNTYVKVLLALKLDAVHVHKNQAMALVEEALKKDPSAIDTLLRAARFYCKVYDTDRAIQLLRKALEKLPNNAYVHYYMGCCYRSKVHHMLNRREMVFSGDRKKLEELIQLAVNHLRKAEEIKEMLEYSCSFLADLYIIAKKYDEADYYFQKELSKDLPPGPKQLLHLRYGNFQFFQMKRQDKAIYHYMEGVKIKKKTIPQKKMREKLQRIALRRLHEDESDSEALHILAFLQENGGGQQADKDSERGVDSANQVPSASLDEDGAEY", "notes": "also called interferon-induced protein with tetratricopeptide repeats 2; source: E. coli Rosetta pLysS, co-expressed with Ifit3, purified (nickel column, TEV cleavage, Superdex 200 size exclusion)"}}, "biological_target": "T1, mouse IFIT3 (M. musculus Ifit3, co-expressed with Ifit2 in E. coli) (M. musculus, UniProt Q64345 8-389)", "T1 construct": "also called interferon-induced protein with tetratricopeptide repeats 3", "T1 sequence": "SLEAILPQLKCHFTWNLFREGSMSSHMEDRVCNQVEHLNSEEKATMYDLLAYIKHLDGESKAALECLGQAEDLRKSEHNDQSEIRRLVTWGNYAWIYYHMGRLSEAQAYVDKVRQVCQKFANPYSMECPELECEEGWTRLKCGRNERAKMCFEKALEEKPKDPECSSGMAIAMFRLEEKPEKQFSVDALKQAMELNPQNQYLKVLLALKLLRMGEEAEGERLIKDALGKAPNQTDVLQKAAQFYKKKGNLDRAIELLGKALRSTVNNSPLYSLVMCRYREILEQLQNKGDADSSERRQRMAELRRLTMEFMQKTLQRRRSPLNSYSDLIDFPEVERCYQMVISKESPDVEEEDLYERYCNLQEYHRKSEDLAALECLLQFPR", "test": "cryo-EM structure", "settings": "both partners purified", "data": [{"binder": "B1", "values": [{"measurement": "stoichiometry N", "result": 1}]}]}
